Measured values published in US7115722.
Values joined by “and” are separate entries in the source; they are usually repeats but may differ in a detail not shown here. Equal values may be shown once.

Experiments:
[1] = molecular target: C-antigen (human); assay: flow cytometry, SK-BR-3 cells, 5 mg/L
[2] = molecular target: C-antigen (human); assay: flow cytometry, SK-BR-3 cells, 2 mg/L IgG1
[3] = molecular target: C-antigen (human); assay: flow cytometry, SK-BR-3 cells, 3.3 mg/L IgG1
[4] = molecular target: C-antigen (human); assay: flow cytometry, SK-BR-3 cells, 3.9 mg/L IgG1
[5] = molecular target: C-antigen (human); assay: flow cytometry, SK-BR-3 cells, 4.0 mg/L IgG1
[6] = molecular target: C-antigen (human); assay: radioligand binding to A-375 cells
[7] = molecular target: C-antigen (human); assay: radioligand binding to SKMG1 cells
[8] = molecular target: C-antigen (human); assay: radioligand binding to LS174T cells
[9] = molecular target: C-antigen (human); assay: cell-fixed ELISA, CEM cells, 2.5 µg/mL
[10] = molecular target: C-antigen (human); assay: cell-fixed ELISA, PC-3 cells, 2.5 µg/mL
[11] = molecular target: C-antigen (human); assay: cell-fixed ELISA, T-24 cells, 2.5 µg/mL
[12] = molecular target: C-antigen (human); assay: cell-fixed ELISA, T47D cells, 2.5 µg/mL
[13] = molecular target: C-antigen (human); assay: cell-fixed ELISA, A-375 cells, 2.5 µg/mL
[14] = molecular target: C-antigen (human); assay: cell-fixed ELISA, A-427 cells, 2.5 µg/mL
[15] = molecular target: C-antigen (human); assay: cell-fixed ELISA, BT-20 cells, 2.5 µg/mL
[16] = molecular target: C-antigen (human); assay: cell-fixed ELISA, CA-46 cells, 2.5 µg/mL
[17] = molecular target: C-antigen (human); assay: cell-fixed ELISA, DAUDI cells, 2.5 µg/mL
[18] = molecular target: C-antigen (human); assay: cell-fixed ELISA, HEP-2 cells, 2.5 µg/mL
[19] = molecular target: C-antigen (human); assay: cell-fixed ELISA, HT-29 cells, 2.5 µg/mL
[20] = molecular target: C-antigen (human); assay: cell-fixed ELISA, K-562 cells, 2.5 µg/mL
[21] = molecular target: C-antigen (human); assay: cell-fixed ELISA, LS17T cells, 2.5 µg/mL
[22] = molecular target: C-antigen (human); assay: cell-fixed ELISA, RAMOS cells, 2.5 µg/mL
[23] = molecular target: C-antigen (human); assay: flow cytometry, live H9 cells, 100 µg/mL
[24] = molecular target: C-antigen (human); assay: flow cytometry, live H9 cells, 100 µg/mL; remark: listed apart in the source
[25] = molecular target: C-antigen (human); assay: flow cytometry, live H9 cells, 200 µg/mL
[26] = molecular target: C-antigen (human); assay: cell-fixed ELISA, BT-474 cells, 2.5 µg/mL
[27] = molecular target: C-antigen (human); assay: cell-fixed ELISA, D-54MG cells, 2.5 µg/mL
[28] = molecular target: C-antigen (human); assay: cell-fixed ELISA, DU-145 cells, 2.5 µg/mL
[29] = molecular target: C-antigen (human); assay: cell-fixed ELISA, MB-468 cells, 2.5 µg/mL
[30] = molecular target: C-antigen (human); assay: cell-fixed ELISA, NCI-69 cells, 2.5 µg/mL
[31] = molecular target: C-antigen (human); assay: cell-fixed ELISA, SAOS-2 cells, 2.5 µg/mL
[32] = molecular target: C-antigen (human); assay: cell-fixed ELISA, SKMG-1 cells, 2.5 µg/mL
[33] = molecular target: C-antigen (human); assay: cell-fixed ELISA, U-2 OS cells, 2.5 µg/mL
[34] = molecular target: C-antigen (human); assay: cell-fixed ELISA, NCI-H82 cells, 2.5 µg/mL
[35] = molecular target: C-antigen (human); assay: cell-fixed ELISA, SK-BR-3 cells, 2.5 µg/mL
[36] = molecular target: C-antigen (human); assay: cell-fixed ELISA, SK-Co-1 cells, 2.5 µg/mL
[37] = molecular target: C-antigen (human); assay: cell-fixed ELISA, SK-LU-1 cells, 2.5 µg/mL
[38] = molecular target: C-antigen (human); assay: cell-fixed ELISA, SK-N-MC cells, 2.5 µg/mL
[39] = molecular target: C-antigen (human); assay: cell-fixed ELISA, SK-OV-3 cells, 2.5 µg/mL
[40] = molecular target: C-antigen (human); assay: cell-fixed ELISA, SW-9000 cells, 2.5 µg/mL
[41] = molecular target: C-antigen (human); assay: cell-fixed ELISA, U-118MG cells, 2.5 µg/mL
[42] = molecular target: C-antigen (human); assay: cell-fixed ELISA, SK-MEL-5 cells, 2.5 µg/mL
[43] = molecular target: C-antigen (human); assay: flow cytometry, live A-375 cells, 200 µg/mL
[44] = molecular target: C-antigen (human); assay: flow cytometry, live HT-29 cells, 200 µg/mL
[45] = molecular target: C-antigen (human); assay: flow cytometry, live CA-46 cells, 100 µg/mL
[46] = molecular target: C-antigen (human); assay: flow cytometry, live CA-46 cells, 200 µg/mL
[47] = molecular target: C-antigen (human); assay: flow cytometry, live RAMOS cells, 100 µg/mL
[48] = molecular target: C-antigen (human); assay: flow cytometry, live RAMOS cells, 200 µg/mL
[49] = molecular target: C-antigen (human); assay: cell-fixed ELISA, SK-MEL-28 cells, 2.5 µg/mL
[50] = molecular target: C-antigen (human); assay: flow cytometry, live MB-468 cells, 200 µg/mL
[51] = molecular target: C-antigen (human); assay: flow cytometry, live SKMG-1 cells, 100 µg/mL
[52] = molecular target: C-antigen (human); assay: flow cytometry, live LS-174T cells, 200 µg/mL
[53] = molecular target: C-antigen (human); assay: flow cytometry, live SK-BR-3 cells, 200 µg/mL
[54] = molecular target: C-antigen (human); assay: flow cytometry, live CCRF-CEM cells, 100 µg/mL
[55] = molecular target: C-antigen (human); assay: flow cytometry, live CCRF-CEM cells, 200 µg/mL
[56] = molecular target: C-antigen (human); assay: cell-fixed ELISA, tumour cell lines, against BGA scFv
[57] = molecular target: C-antigen (human); assay: flow cytometry, live SKMG-1 cells, 100 µg/mL (second row)
[58] = molecular target: C-antigen (human); assay: flow cytometry, live WI-38 human diploid lung cells, 100 µg/mL

Control IgG1 (antibody)
Mean Fluorescence (MF) [1]: 169

B1: recombinantly produced H11 IgG1 (antibody)
VH: QAIVTLNTQAMHPTRWELSHMVDLQAAALVISSFITEHRGLTMEFGLSWVFLVALLRGIQCQVQLVESGGGVVQPGRSLRLSCAASGFPFRSFAMHWVRQALGKGLEWVAVISYDGSTKYYADSVKGRFTISRDTSKNTVYLKMNRLRTEDTAVFYLCERQSLLGDYDHYYGLDAWGKG
VL: LEMDMEFQAQLLFLLLLWLPDITGDIVLTQSPGTLSLSPGERATLSCRASQSVSSSYLAWYQQKPGQAPRLLIYGASTRATGMPDRFSGSGSGTDFTLTISRLEPEDFAVYYCQQYGSSPQTPQITFGGGTKVEIKRTVAAPSVFIFPPS
% Increase of MF above IgG1 control [2]: 2% and 9%
Mean Fluorescence (MF) [2]: 172 and 184
% Increase of MF above IgG1 control [3]: 14% and 10%
Mean Fluorescence (MF) [3]: 192 and 186
% Increase of MF above IgG1 control [4]: 18%
Mean Fluorescence (MF) [4]: 200
% Increase of MF above IgG1 control [5]: 33%
Mean Fluorescence (MF) [5]: 224

B2: H11-scFv (scFv)
scFv: DIVLTQSPGTLSLSPGERATLSCRASQSVSSSYLAWYQQKPGQAPRLLIYGASTRATGMPDRFSGSGSGTDFTLTISRLEPEDFAVYYCQQYGSSPQTPQITFGGGTKVEIKRTVAAPSVSGGGGSGGGGSGGGGSQVQLVESGGGVVQPGRSLRLSCAASGFPFRSFAMHWVRQALGKGLEWVAVISYDGSTKYYADSVKGRFTISRDTSKNTVYLKMNSLRTEDTAVYYCARDQSLLGDYDHYYGLDVWGKGTTVTVSSGSEQKLISEEDLNHHHHH
Ka [6]: 3.6e+08 M⁻¹
binding sites/cell (binding sites/cell) [6]: 24000
Ka [7]: 1.4e+09 M⁻¹
binding sites/cell (binding sites/cell) [7]: 5000
Ka [8]: 3e+08 M⁻¹
O.D. at 450 nm [9]: 1.4 O.D.
O.D. at 450 nm [10]: 0.36 O.D.
O.D. at 450 nm [11]: 0.97 O.D.
O.D. at 450 nm [12]: 0.64 O.D.
O.D. at 450 nm [13]: 0.97 O.D.
O.D. at 450 nm [14]: 0.4 O.D.
O.D. at 450 nm [15]: 0.54 O.D.
O.D. at 450 nm [16]: 1.2 O.D.
O.D. at 450 nm [17]: 1.38 O.D.
O.D. at 450 nm [18]: 0.08 O.D.
O.D. at 450 nm [19]: 0.53 O.D.
O.D. at 450 nm [20]: 0.65 O.D.
O.D. at 450 nm [21]: 0.57 O.D.
O.D. at 450 nm [22]: 1.3 O.D.
% Positive Cells [23]: 13%
Mean Fluorescence [23]: 145
% FLUORESCENCE […] [24]: 15%
% Positive Cells [24]: 9%
Mean Fluorescence [24]: 171
% FLUORESCENCE […] [25]: 20%
% Positive Cells [25]: 13%
Mean Fluorescence [25]: 186
O.D. at 450 nm [26]: 0.6 O.D.
O.D. at 450 nm [27]: 0.5 O.D.
O.D. at 450 nm [28]: 0.42 O.D.
O.D. at 450 nm [29]: 0.65 O.D.
O.D. at 450 nm [30]: 0.44 O.D.
O.D. at 450 nm [31]: 0.88 O.D.
O.D. at 450 nm [32]: 0.56 O.D.
O.D. at 450 nm [33]: 0.93 O.D.
O.D. at 450 nm [34]: 0.44 O.D.
O.D. at 450 nm [35]: 0.58 O.D.
O.D. at 450 nm [36]: 0.56 O.D.
O.D. at 450 nm [37]: 0.45 O.D.
O.D. at 450 nm [38]: 0.5 O.D.
O.D. at 450 nm [39]: 0.77 O.D.
O.D. at 450 nm [40]: 0.41 O.D.
O.D. at 450 nm [41]: 0.47 O.D.
O.D. at 450 nm [42]: 0.61 O.D.
% Positive Cells [43]: 80% and 76%
Mean Fluorescence [43]: 207 and 235
% Positive Cells [44]: 18%
Mean Fluorescence [44]: 179
% FLUORESCENCE […] [45]: 66%
% Positive Cells [45]: 58%
Mean Fluorescence [45]: 221
% FLUORESCENCE […] [46]: 108%
% Positive Cells [46]: 76%
Mean Fluorescence [46]: 262
% FLUORESCENCE […] [47]: 87%
% Positive Cells [47]: 67%
Mean Fluorescence [47]: 316
% FLUORESCENCE […] [48]: 143%
% Positive Cells [48]: 95%
Mean Fluorescence [48]: 423
O.D. at 450 nm [49]: 0.71 O.D.
% Positive Cells [50]: 11%
Mean Fluorescence [50]: 156
% Positive Cells [51]: 31%
Mean Fluorescence [51]: 206
% Positive Cells [52]: 37%
Mean Fluorescence [52]: 233
% Positive Cells [53]: 36%
Mean Fluorescence [53]: 233
% FLUORESCENCE […] [54]: 52%
% Positive Cells [54]: 38%
Mean Fluorescence [54]: 242
% FLUORESCENCE […] [55]: 35%
% Positive Cells [55]: 34%
Mean Fluorescence [55]: 231
affinity relative to control scFv [56]: 8 to 50 fold
% Positive Cells [57]: 27%
Mean Fluorescence [57]: 224
% Positive Cells [58]: 15%
Mean Fluorescence [58]: 255
